From IntAct's records for PubMed 16951355

B1: ICOS ligand (Homo sapiens), O75144 (parent)
chain: MRLGSPGLLFLLFSSLRADTQEKEVRAMVGSDVELSCACPEGSRFDLNDVYVYWQTSESKTVVTYHIPQNSSLENVDSRYRNRALMSPAGMLRGDFSLRLFNVTPQDEQKFHCLVLSQSLGFQEVLSVEVTLHVAANFSVPVVSAPHSPSQDELTFTCTSINGYPRPNVYWINKTDNSLLDQALQNDTVFLNMRGLYDVVSVLRIARTPSVNIGCCIENVLLQQNLTVGSQTGNDIGERDKITENPVSTGEKNAATWSILAVLCLLVVVAVAIGWVCRDRCLQHSYAGAWAVSPETELTGHV

Variants of: B1
Conditions: with icos_human ICOS

| Variant | effect of a mutation on the interaction |
| --- | --- |
| MRLGSPGLLFLLFSSLRADTQEKEVRAMVGSDVELSCACPEGSRFDLNDVYVYWQTSEAKTVVTYHIPQNSSLENVDSRYRNRALMSPAGMLRGDFSLRLFNVTPQDEQKFHCLVLSQSLGFQEVLSVEVTLHVAANFSVPVVSAPHSPSQDELTFTCTSINGYPRPNVYWINKTDNSLLDQALQNDTVFLNMRGLYDVVSVLRIARTPSVNIGCCIENVLLQQNLTVGSQTGNDIGERDKITENPVSTGEKNAATWSILAVLCLLVVVAVAIGWVCRDRCLQHSYAGAWAVSPETELTGHV [S59A] | with no effect |
| MRLGSPGLLFLLFSSLRADTQEKEVRAMVGSDVELSCACPEGSRFDLNDVYVFWQTSESKTVVTYHIPQNSSLENVDSRYRNRALMSPAGMLRGDFSLRLFNVTPQDEQKFHCLVLSQSLGFQEVLSVEVTLHVAANFSVPVVSAPHSPSQDELTFTCTSINGYPRPNVYWINKTDNSLLDQALQNDTVFLNMRGLYDVVSVLRIARTPSVNIGCCIENVLLQQNLTVGSQTGNDIGERDKITENPVSTGEKNAATWSILAVLCLLVVVAVAIGWVCRDRCLQHSYAGAWAVSPETELTGHV [Y53F] | disrupting interaction strength |
| MRLGSPGLLFLLFSSLRADTQEKEVRAMVGSDVELSCACPEGSRFDLNDVYVAWQTSESKTVVTYHIPQNSSLENVDSRYRNRALMSPAGMLRGDFSLRLFNVTPQDEQKFHCLVLSQSLGFQEVLSVEVTLHVAANFSVPVVSAPHSPSQDELTFTCTSINGYPRPNVYWINKTDNSLLDQALQNDTVFLNMRGLYDVVSVLRIARTPSVNIGCCIENVLLQQNLTVGSQTGNDIGERDKITENPVSTGEKNAATWSILAVLCLLVVVAVAIGWVCRDRCLQHSYAGAWAVSPETELTGHV [Y53A] | disrupting interaction strength |
| MRLGSPGLLFLLFSSLRADTQEKEVRAMVGSDVELSCACPEGSRFDANDVYVYWQTSESKTVVTYHIPQNSSLENVDSRYRNRALMSPAGMLRGDFSLRLFNVTPQDEQKFHCLVLSQSLGFQEVLSVEVTLHVAANFSVPVVSAPHSPSQDELTFTCTSINGYPRPNVYWINKTDNSLLDQALQNDTVFLNMRGLYDVVSVLRIARTPSVNIGCCIENVLLQQNLTVGSQTGNDIGERDKITENPVSTGEKNAATWSILAVLCLLVVVAVAIGWVCRDRCLQHSYAGAWAVSPETELTGHV [L47A] | with no effect |
| MRLGSPGLLFLLFSSLRADTQEKEVRAMVGSDVELSCACPEGSRFDLNDVAVYWQTSESKTVVTYHIPQNSSLENVDSRYRNRALMSPAGMLRGDFSLRLFNVTPQDEQKFHCLVLSQSLGFQEVLSVEVTLHVAANFSVPVVSAPHSPSQDELTFTCTSINGYPRPNVYWINKTDNSLLDQALQNDTVFLNMRGLYDVVSVLRIARTPSVNIGCCIENVLLQQNLTVGSQTGNDIGERDKITENPVSTGEKNAATWSILAVLCLLVVVAVAIGWVCRDRCLQHSYAGAWAVSPETELTGHV [Y51A] | disrupting interaction strength |
| MRLGSPGLLFLLFSSLRADTQEKEVRAMVGSDVELSCACPEGSRFDLNDVFVYWQTSESKTVVTYHIPQNSSLENVDSRYRNRALMSPAGMLRGDFSLRLFNVTPQDEQKFHCLVLSQSLGFQEVLSVEVTLHVAANFSVPVVSAPHSPSQDELTFTCTSINGYPRPNVYWINKTDNSLLDQALQNDTVFLNMRGLYDVVSVLRIARTPSVNIGCCIENVLLQQNLTVGSQTGNDIGERDKITENPVSTGEKNAATWSILAVLCLLVVVAVAIGWVCRDRCLQHSYAGAWAVSPETELTGHV [Y51F] | decreasing interaction strength |
| MRLGSPGLLFLLFSSLRADTQEKEVRAMVGSDVELSCACPEGSRFDLNDVYVYWQTSESKAVVTYHIPQNSSLENVDSRYRNRALMSPAGMLRGDFSLRLFNVTPQDEQKFHCLVLSQSLGFQEVLSVEVTLHVAANFSVPVVSAPHSPSQDELTFTCTSINGYPRPNVYWINKTDNSLLDQALQNDTVFLNMRGLYDVVSVLRIARTPSVNIGCCIENVLLQQNLTVGSQTGNDIGERDKITENPVSTGEKNAATWSILAVLCLLVVVAVAIGWVCRDRCLQHSYAGAWAVSPETELTGHV [T61A] | with no effect |
| MRLGSPGLLFLLFSSLRADTQEKEVRAMVGSDVELSCACPEGSRFDLNDVYVYWATSESKTVVTYHIPQNSSLENVDSRYRNRALMSPAGMLRGDFSLRLFNVTPQDEQKFHCLVLSQSLGFQEVLSVEVTLHVAANFSVPVVSAPHSPSQDELTFTCTSINGYPRPNVYWINKTDNSLLDQALQNDTVFLNMRGLYDVVSVLRIARTPSVNIGCCIENVLLQQNLTVGSQTGNDIGERDKITENPVSTGEKNAATWSILAVLCLLVVVAVAIGWVCRDRCLQHSYAGAWAVSPETELTGHV [Q55A] | decreasing interaction strength |
| MRLGSPGLLFLLFSSLRADTQEKEVRAMVGSDVELSCACPEGSRFDLNDVYVYWATSESKTAVTYHIPQNSSLENVDSRYRNRALMSPAGMLRGDFSLRLFNVTPQDEQKFHCLVLSQSLGFQEVLSVEVTLHVAANFSVPVVSAPHSPSQDELTFTCTSINGYPRPNVYWINKTDNSLLDQALQNDTVFLNMRGLYDVVSVLRIARTPSVNIGCCIENVLLQQNLTVGSQTGNDIGERDKITENPVSTGEKNAATWSILAVLCLLVVVAVAIGWVCRDRCLQHSYAGAWAVSPETELTGHV [Q55A;V62A] | disrupting interaction strength |
